# Test results: PMC6879718, “Mycobacterial OtsA Structures Unveil Substrate Preference Mechanism and Allosteric Regulation by 2-Oxoglutarate and 2-Phosphoglycerate” (mBio, 2019)
# Entries after “also recorded” stand apart in the source; their conditions may differ. Where two headings read alike, the source gives them in different places.
# Key:
# [1] = target: T1, M. thermoresistibile OtsA wild type (Mycolicibacterium thermoresistibile, UniProt G7CGT2); experiment: Effect of feedback inhibitors and allosteric regulators on OtsA activity (wild type); format: biochemical, Mycobacterium thermoresistibile
# [2] = target: T1, M. thermoresistibile OtsA wild type; experiment: OtsA kinetic parameters, continuous colorimetric coupled assay (wild type); format: biochemical, Mycobacterium thermoresistibile; conditions: ADP-glucose as the donor substrate
# [3] = tested on: Nc1nc2c(ncn2[C@@H]2O[C@H](COP(=O)(O)OP(=O)(O)O[C@H]3O[C@H](CO)[C@@H](O)[C@H](O)[C@H]3O)[C@@H](O)[C@H]2O)c(=O)[nH]1; experiment: OtsA kinetic parameters, continuous colorimetric coupled assay (L319I); format: biochemical, Mycobacterium thermoresistibile; conditions: other: L319I; G6P fixed at 10 mM for NDP-glucose, ADP-glucose […] for G6P; pH 7.5; 37.0 °C
# [4] = tested on: Nc1ncnc2c1ncn2[C@@H]1O[C@H](COP(=O)(O)OP(=O)(O)O[C@H]2O[C@H](CO)[C@@H](O)[C@H](O)[C@H]2O)[C@@H](O)[C@H]1O; experiment: as above; format: biochemical, Mycobacterium thermoresistibile; conditions: other: L319I; G6P fixed at 10 mM for NDP-glucose, ADP-glucose […] for G6P; pH 7.5; 37.0 °C
# [5] = tested on: O=C[C@H](O)[C@@H](O)[C@H](O)[C@H](O)COP(=O)(O)O; experiment: as above; format: biochemical, Mycobacterium thermoresistibile; conditions: other: L319I; G6P fixed at 10 mM for NDP-glucose, ADP-glucose […] for G6P; pH 7.5; 37.0 °C
# [6] = tested on: Nc1nc2c(ncn2[C@@H]2O[C@H](COP(=O)(O)OP(=O)(O)O[C@H]3O[C@H](CO)[C@@H](O)[C@H](O)[C@H]3O)[C@@H](O)[C@H]2O)c(=O)[nH]1; experiment: OtsA kinetic parameters, continuous colorimetric coupled assay (L319I, V363F, E367L); format: biochemical, Mycobacterium thermoresistibile; conditions: other: L319I, G6P fixed at 10 mM for NDP-glucose, ADP-glucose […] for G6P, pH 7.5, 37.0 °C
# [7] = tested on: Nc1ncnc2c1ncn2[C@@H]1O[C@H](COP(=O)(O)OP(=O)(O)O[C@H]2O[C@H](CO)[C@@H](O)[C@H](O)[C@H]2O)[C@@H](O)[C@H]1O; experiment: as above; format: biochemical, Mycobacterium thermoresistibile; conditions: other: L319I, G6P fixed at 10 mM for NDP-glucose, ADP-glucose […] for G6P, pH 7.5, 37.0 °C
# [8] = tested on: O=C[C@H](O)[C@@H](O)[C@H](O)[C@H](O)COP(=O)(O)O; experiment: as above; format: biochemical, Mycobacterium thermoresistibile; conditions: other: L319I, G6P fixed at 10 mM for NDP-glucose, ADP-glucose […] for G6P, pH 7.5, 37.0 °C
# [9] = target: Mycobacterium thermoresistibile OtsA (Mycobacterium thermoresistibile (DSM 44167)); experiment: not stated; in solution; the paper does not tell by which method the tetramer was seen
# [10] = target: Mycobacterium thermoresistibile OtsA (Mycobacterium thermoresistibile (DSM 44167)); experiment: crystal structure; apo form in space group I4(1)22, ADP-G6P ternary complex in P6(2)22, one protomer per asymmetric unit each; sitting-drop vapor diffusion at 18°C
compound,measurement,setting,value
"O=P(O)(O)OC[C@H]1O[C@H](O[C@H]2O[C@H](CO)[C@@H](O)[C@H](O)[C@H]2O)[C@H](O)[C@@H](O)[C@@H]1O [T6P, trehalose-6-phosphate]",effect on OtsA activity,"[1]; wild type, G6P and ADP-glucose both 0.3 mM",very low sensitivity
"O=C[C@H](O)[C@@H](O)[C@H](O)[C@H](O)COP(=O)(O)O [Glucose-6-phosphate, glucose-6-phosphate]",use as acceptor substrate,[2],the only acceptor
OC[C@H]1O[C@H](O[C@H]2O[C@H](CO)[C@@H](O)[C@H](O)[C@H]2O)[C@H](O)[C@@H](O)[C@@H]1O [Trehalose],IC50,[1],~24 mM
M. thermoresistibile OtsA L319I (Mycolicibacterium thermoresistibile ATCC 19527; L319I),Km,[3],350 ± 40 µM
same,kcat,[3],3.1 ± 0.1 s⁻¹
same,kcat/Km,[3],8900 ± 1400 M⁻¹ s⁻¹
same,Km,[4],710 ± 180 µM
same,kcat,[4],8.4 ± 0.7 s⁻¹
same,kcat/Km,[4],12000 ± 2000 M⁻¹ s⁻¹
same,Km,[5],3300 ± 200 µM
same,kcat,[5],6.4 ± 0.2 s⁻¹
same,kcat/Km,[5],1900 ± 200 M⁻¹ s⁻¹
O=C(CO)[C@@H](O)[C@H](O)[C@H](O)COP(=O)(O)O [F6P],effect on OtsA activity,[1],could not detect any effect; also recorded: no effect on the enzyme activity
"M. thermoresistibile OtsA L319I, V363F, E367L (Mycolicibacterium thermoresistibile ATCC 19527; E367L/L319I/V363F)",Km,[6],900 ± 60 µM
same,kcat,[6],16 ± 1 s⁻¹
same,kcat/Km,[6],18000 ± 2000 M⁻¹ s⁻¹
same,Km,[7],1300 ± 100 µM
same,kcat,[7],19 ± 1 s⁻¹
same,kcat/Km,[7],15000 ± 2000 M⁻¹ s⁻¹
same,Km,[8],3200 ± 200 µM
same,kcat,[8],17 ± 1 s⁻¹
same,kcat/Km,[8],5300 ± 600 M⁻¹ s⁻¹
Mycobacterium thermoresistibile OtsA (enzyme),stoichiometry N,[9],4
same,stoichiometry N,[10],4
